Patent US20130225506A1 (POLYPHOR, published 2013)
Square brackets hold non-standard residues; d marks the D form. Primed or numbered codes have the meaning given here. Phe(4-CF3) = N[C@@H](Cc1ccc(C(F)(F)F)cc1)C(=O)O; dPro(cis-4-NH2) = N[C@H]1CN[C@@H](C(=O)O)C1; Pro(3S-OH) = O=C(O)[C@H]1NCC[C@@H]1O; hArg = N=C(N)NCCCC[C@H](N)C(=O)O; Tic = O=C(O)[C@@H]1Cc2ccccc2CN1; dTic = O=C(O)[C@H]1Cc2ccccc2CN1; Cha = N[C@@H](CC1CCCCC1)C(=O)O; aThr = C[C@H](O)[C@H](N)C(=O)O; Orn(A41) = not defined here; Orn(A56) = not defined here; Orn(Ar2) = not defined here; Orn(Ar4) = not defined here; Orn(Ar7) = not defined here; dOrn = NCCC[C@@H](N)C(=O)O; hSer = N[C@@H](CCO)C(=O)O; Orn = NCCC[C@H](N)C(=O)O; dPip′ = not defined here; A56 = not defined here; Ar7 = not defined here; Tiq = not defined here

The binders below were run against chemokine receptor CXCR7 (UniProt P25106 1-362, limits assumed) (assay: cell-based or functional assay).
Sequence of chemokine receptor CXCR7 (P25106 whole entry): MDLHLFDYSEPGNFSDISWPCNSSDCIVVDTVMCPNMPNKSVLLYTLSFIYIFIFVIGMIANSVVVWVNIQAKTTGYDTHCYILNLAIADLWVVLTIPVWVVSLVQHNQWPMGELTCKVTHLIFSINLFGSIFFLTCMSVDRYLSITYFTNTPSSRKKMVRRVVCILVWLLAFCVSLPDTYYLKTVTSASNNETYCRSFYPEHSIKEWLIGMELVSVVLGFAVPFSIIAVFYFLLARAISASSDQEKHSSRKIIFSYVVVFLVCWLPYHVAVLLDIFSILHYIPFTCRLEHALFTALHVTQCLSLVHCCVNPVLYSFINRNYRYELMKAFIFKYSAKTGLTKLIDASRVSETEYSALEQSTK

Binder | β-Arrestin EC50 [nM]
cyclo(I[dR][hArg]W[dP]T) (SMILES CC[C@H](C)[C@@H]1NC(=O)[C@H]([C@@H](C)O)NC(=O)[C@H]2CCCN2C(=O)[C@H](Cc2c[nH]c3ccccc23)NC(=O)[C@H](CCCCNC(=N)N)NC(=O)[C@@H](CCCNC(=N)N)NC1=O) [cyclo(-Ile-^DArg-hArg-Trp-^DPro-Thr-)] | 11
cyclo(W[dF]W[Orn](A56)[dPip′][Pro(3S-OH)]) (reading uncertain; also: printed as cyclo(-Trp-^DPhe-Trp-Orn(A56)-^DPip-Pro((3S)OH)-)) [cyclo(-Trp-^DPhe-Trp-Orn(A56)-^DPip-Pro((3S)OH)-)] | 14
cyclo(I[dR]RW[dP][aThr]) (SMILES CC[C@H](C)[C@@H]1NC(=O)[C@H]([C@H](C)O)NC(=O)[C@H]2CCCN2C(=O)[C@H](Cc2c[nH]c3ccccc23)NC(=O)[C@H](CCCNC(=N)N)NC(=O)[C@@H](CCCNC(=N)N)NC1=O) [cyclo(-Ile-^DArg-Arg-Trp-^DPro-alloThr-)] | 292
cyclo([Orn(A56)][dF]WR[dPro(cis-4-NH2)][Tic]) (reading uncertain; also: printed as cyclo(-Orn(A56)-^DPhe-Trp-Arg-^DPro((4R)NH2)-Tic-)) [cyclo(-Orn(A56)-^DPhe-Trp-Arg-^DPro((4R)NH2)-Tic-)] | 181
cyclo(W[dF]W[Orn](A56)[dPro(cis-4-NH2)][Tic]) (reading uncertain; also: printed as cyclo(-Trp-^DPhe-Trp-Orn(A56)-^DPro((4R)NH2)-Tic-)) [cyclo(-Trp-^DPhe-Trp-Orn(A56)-^DPro((4R)NH2)-Tic-)] | 33.4
cyclo(I[dR][Orn(Ar2)]W[dP]T) (reading uncertain; also: printed as cyclo(-Ile-^DArg-Orn(Ar2)-Trp-^DPro-Thr-)) [cyclo(-Ile-^DArg-Orn(Ar2)-Trp-^DPro-Thr-)] | 453
cyclo(W[dF]W[Orn](Ar7)[dPro(cis-4-NH2)][Tic]) (reading uncertain; also: printed as cyclo(-Trp-^DPhe-Trp-Orn(Ar7)-^DPro((4R)NH2)-Tic-)) [cyclo(-Trp-^DPhe-Trp-Orn(Ar7)-^DPro((4R)NH2)-Tic-)] | 145
cyclo(I[dR][Orn(Ar7)]W[dP]T) (reading uncertain; also: printed as cyclo(-Ile-^DArg-Orn(Ar7)-Trp-^DPro-Thr-)) [cyclo(-Ile-^DArg-Orn(Ar7)-Trp-^DPro-Thr-)] | 336
cyclo([Ala(1Pyraz)][dF]WR[dPro(cis-4-NH2)][Tic]) [cyclo(-Ala(1Pyraz)-^DPhe-Trp-Arg-^DPro((4R)NH2)-Tic-)] | 29.9
cyclo(I[dR]RW[dP][hSer]) (SMILES CC[C@H](C)[C@@H]1NC(=O)[C@H](CCO)NC(=O)[C@H]2CCCN2C(=O)[C@H](Cc2c[nH]c3ccccc23)NC(=O)[C@H](CCCNC(=N)N)NC(=O)[C@@H](CCCNC(=N)N)NC1=O) [cyclo(-Ile-^DArg-Arg-Trp-^DPro-hSer-)] | 347
cyclo([Ala(Tet)][dF]WR[dPro(cis-4-NH2)][Tic]) [cyclo(-Ala(Tet)-^DPhe-Trp-Arg-^DPro((4R)NH2)-Tic-)] | 28.1
cyclo(I[dR][Orn(A56)]W[dP]T) (reading uncertain; also: printed as cyclo(-Ile-^DArg-Orn(A56)-Trp-^DPro-Thr-)) [cyclo(-Ile-^DArg-Orn(A56)-Trp-^DPro-Thr-)] | 3.2
cyclo(I[dR][Orn(A41)]W[dP]T) (reading uncertain; also: printed as cyclo(-Ile-^DArg-Orn(A41)-Trp-^DPro-Thr-)) [cyclo(-Ile-^DArg-Orn(A41)-Trp-^DPro-Thr-)] | 518
cyclo(I[dR][Orn]W[dP]T) (SMILES CC[C@H](C)[C@@H]1NC(=O)[C@H]([C@@H](C)O)NC(=O)[C@H]2CCCN2C(=O)[C@H](Cc2c[nH]c3ccccc23)NC(=O)[C@H](CCCN)NC(=O)[C@@H](CCCNC(=N)N)NC1=O) [cyclo(-Ile-^DArg-Orn-Trp-^DPro-Thr-)] | 816

Other lines, results leading:

β-Arrestin EC50 [nM] | Binder
53.2 | cyclo(I[dT]RW[dP]T) (SMILES CC[C@H](C)[C@@H]1NC(=O)[C@H]([C@@H](C)O)NC(=O)[C@H]2CCCN2C(=O)[C@H](Cc2c[nH]c3ccccc23)NC(=O)[C@H](CCCNC(=N)N)NC(=O)[C@@H]([C@H](C)O)NC1=O) [cyclo(-Ile-^DThr-Arg-Trp-^DPro-Thr-)]
14.2 | cyclo(I[dR]RW[dTic]T) (SMILES CC[C@H](C)[C@@H]1NC(=O)[C@H]([C@@H](C)O)NC(=O)[C@H]2Cc3ccccc3CN2C(=O)[C@H](Cc2c[nH]c3ccccc23)NC(=O)[C@H](CCCNC(=N)N)NC(=O)[C@@H](CCCNC(=N)N)NC1=O) [cyclo(-Ile-^DArg-Arg-Trp-^DTic-Thr-)]
37.7 | cyclo([Cha][dR]RW[dP]T) (SMILES C[C@@H](O)[C@@H]1NC(=O)[C@H]2CCCN2C(=O)[C@H](Cc2c[nH]c3ccccc23)NC(=O)[C@H](CCCNC(=N)N)NC(=O)[C@@H](CCCNC(=N)N)NC(=O)[C@H](CC2CCCCC2)NC1=O) [cyclo(-Cha-^DArg-Arg-Trp-^DPro-Thr-)]
23.3 | cyclo(I[dOrn]RW[dP]T) (SMILES CC[C@H](C)[C@@H]1NC(=O)[C@H]([C@@H](C)O)NC(=O)[C@H]2CCCN2C(=O)[C@H](Cc2c[nH]c3ccccc23)NC(=O)[C@H](CCCNC(=N)N)NC(=O)[C@@H](CCCN)NC1=O) [cyclo(-Ile-^DOrn-Arg-Trp-^DPro-Thr-)]
46.9 | cyclo(W[dF]W[Orn](A56)[dPro(cis-4-NH2)][Tiq]) (reading uncertain; also: printed as cyclo(-Trp-^DPhe-Trp-Orn(A56)-^DPro((4R)NH2)-Tiq-)) [cyclo(-Trp-^DPhe-Trp-Orn(A56)-^DPro((4R)NH2)-Tiq-)]
4.5 | cyclo(I[dR]R[Phe(4-CF3)][dP]T) (SMILES CC[C@H](C)[C@@H]1NC(=O)[C@H]([C@@H](C)O)NC(=O)[C@H]2CCCN2C(=O)[C@H](Cc2ccc(C(F)(F)F)cc2)NC(=O)[C@H](CCCNC(=N)N)NC(=O)[C@@H](CCCNC(=N)N)NC1=O) [cyclo(-Ile-^DArg-Arg-Phe(4CF3)-^DPro-Thr-)]
209 | cyclo([Orn(Ar2)][dF]WR[dPro(cis-4-NH2)][Tic]) (reading uncertain; also: printed as cyclo(-Orn(Ar2)-^DPhe-Trp-Arg-^DPro((4R)NH2)-Tic-)) [cyclo(-Orn(Ar2)-^DPhe-Trp-Arg-^DPro((4R)NH2)-Tic-)]
4.6 | cyclo(I[dR][Orn(Ar4)]W[dP]T) (reading uncertain; also: printed as cyclo(-Ile-^DArg-Orn(Ar4)-Trp-^DPro-Thr-)) [cyclo(-Ile-^DArg-Orn(Ar4)-Trp-^DPro-Thr-)]
